Experimental data reported in publication PMC9338584 (2022).

Biological target: recombinant lamprey tumor necrosis factor receptor (rL-TNFR) (lamprey)
Test: SPR

B1: recombinant Lr-PGRN-S1 (Lethenteron reissneri short-form progranulin S1) (natural protein)
chain: MGAVFSLGLSKEAIAMALPRPLMFVLVAAGLCALVSADRCPDGRFCVSRCCWKFTQYTCCWAGEGEGQGETQGELATVPAQAISATVSKVSSCAGSVCSANGESRCCPLSEGSCCGDGLSCCGKGSTCTTFRGLNLCLPHAEFQDPVATFLSREQQQHQQGGCVDDSGCPAGSECHVASGDHRGQCVSSDALIPWVEKEAALSGAVGAQVVYCGSGQYCRDGQTCCRLATGSWGCCNIPHAICCSDGIHCCPTGHFCLTASGLCARSTLSLPAVEGV
Binder B1 has a Kd of 337 nM.
